# Source: patent US20190177408A1 (SUZHOU CONNECT BIOPHARMACEUTICALS, published 2019)
# Changes are numbered by the printed parent chain. Where two headings read alike, the source gives them in different places.
# T1: IL-4Rα on TF-1 cells (human, UniProt P24394 26-825)
# T1 sequence (looked up): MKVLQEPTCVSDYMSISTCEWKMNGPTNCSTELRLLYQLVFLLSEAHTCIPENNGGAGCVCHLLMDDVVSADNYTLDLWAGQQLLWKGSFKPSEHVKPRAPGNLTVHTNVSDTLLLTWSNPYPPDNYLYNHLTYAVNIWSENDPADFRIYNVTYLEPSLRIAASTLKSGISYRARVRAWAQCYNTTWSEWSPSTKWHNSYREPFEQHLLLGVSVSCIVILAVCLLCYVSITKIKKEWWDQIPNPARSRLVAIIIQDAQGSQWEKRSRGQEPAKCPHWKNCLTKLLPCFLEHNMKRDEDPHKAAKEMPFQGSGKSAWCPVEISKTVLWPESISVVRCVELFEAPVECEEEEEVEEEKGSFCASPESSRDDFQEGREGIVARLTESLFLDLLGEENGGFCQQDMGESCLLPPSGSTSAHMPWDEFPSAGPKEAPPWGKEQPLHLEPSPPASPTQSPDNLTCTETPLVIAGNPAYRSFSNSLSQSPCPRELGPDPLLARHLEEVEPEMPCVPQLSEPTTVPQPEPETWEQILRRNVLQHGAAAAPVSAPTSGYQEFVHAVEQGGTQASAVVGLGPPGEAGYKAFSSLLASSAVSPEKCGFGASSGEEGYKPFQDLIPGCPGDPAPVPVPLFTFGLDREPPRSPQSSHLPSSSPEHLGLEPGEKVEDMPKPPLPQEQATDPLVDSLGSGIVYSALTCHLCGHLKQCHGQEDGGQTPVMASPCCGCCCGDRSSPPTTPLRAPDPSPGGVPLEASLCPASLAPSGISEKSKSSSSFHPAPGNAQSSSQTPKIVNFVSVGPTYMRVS
# T2: human soluble IL-4Rα (sIL-4Rα) (human, UniProt P24394 26-232)
# T2 construct: Bought reagent (PEPRO TECH, Catalog Number 200-04R); also called shIL-4Rα; soluble hIL-4 Rα
# T2 sequence: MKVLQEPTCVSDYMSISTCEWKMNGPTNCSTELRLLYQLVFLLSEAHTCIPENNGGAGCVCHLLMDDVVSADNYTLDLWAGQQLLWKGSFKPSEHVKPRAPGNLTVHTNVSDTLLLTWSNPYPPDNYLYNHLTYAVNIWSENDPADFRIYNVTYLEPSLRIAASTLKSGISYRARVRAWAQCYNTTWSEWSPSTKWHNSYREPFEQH
# B1: L1019H1000 (antibody, V domains shown)
# VH: EVQLVQSGGGLVHPGGSLRLSCAGSGFTFSRNAMFWVRQAPGKGLEWVSGIGTGGATNYADSVKGRFTISRDNAKNSLYLQMNSLRAEDMAVYYCARGRYYFDYWGQGTLVTVSS
# VL: EIVLTQSPGTLSLSPGERATLSCRASQSVSNSYLAWYQQKPGQAPRLLIFGASSRATGIPDRFSGSGSGTDFTLTISRLEPEDFAVYYCQQYDHSAGWTFGQGTKVEIK
# notes: human kappa
# B2: L1021H1031 (antibody, V domains shown)
# VH: B1 VH with Q6E, H13Q, G24A, N58S, M90T
# VL: B1 VL with N31S, T57P
# notes: human kappa
# B3: L1022H1000 (antibody, V domains shown)
# VH: B1 VH
# VL: B1 VL with F50Y
# notes: human kappa
# B4: L1021H1016 (antibody, V domains shown)
# VH: B1 VH with D103P, Y104W
# VL: B1 VL with N31S, T57P
# notes: human kappa
# B5: L1024H1007 (antibody, V domains shown)
# VH: B1 VH with N58S
# VL: B1 VL with T57P
# notes: human kappa
# B6: L1023H1000 (antibody, V domains shown)
# VH: B1 VH
# VL: B1 VL with N31S, F50Y, T57P
# B7: L1024H1000 (antibody, V domains shown)
# VH: B1 VH
# VL: B1 VL with T57P
# notes: human kappa
# B8: L1024H1031 (antibody, V domains shown)
# VH: B1 VH with Q6E, H13Q, G24A, N58S, M90T
# VL: B1 VL with T57P
# notes: human kappa
# B9: L1021H1020 (antibody, V domains shown)
# VH: B1 VH with N58S, D103P, Y104W
# VL: B1 VL with N31S, T57P
# notes: human kappa
# Experiments:
# IL-4Rα on TF-1 cells [1] = target: T1, IL-4Rα on TF-1 cells; experiment: cell-based or functional assay
# [2] = target: T2, human soluble IL-4Rα (sIL-4Rα); experiment: ELISA, coated sIL-4Rα, culture supernatant
# Experimental: 100 μl of 100 μg/ml sIL-4Rα solution was added to 9.90 ml of PBS, mixed up and down, and then an antigen coating buffer of 1.0 μg/ml was obtained. The prepared antigen coating buffer was added to a 96-well ELISA plate (Corning) with a volume of 100 μl per well. The 96-well ELISA plate was incubated overnight in a refrigerator at 4° C. On the next day; the solution therein was discarded; and PBS containing 2% BSA was added to the 96-well ELISA plate row by row with a volume of 300 μl per well. The 96-well ELISA plate was incubated for 2 hours in a refrigerator at 4° C., Then the PBS containing 2% BSA was discarded and the plate was washed 3 times with PBST. Diluted antibodies to be tested were sequentially added to the corresponding wells, while the normal cell culture supernatants, as negative control samples, were added too. Three duplicate wells were made for each sample with a volume of 100 μl per well. The ELISA plate was wrapped with preservative film (or covered) and incubated for 1 h at […] in a constant temperature incubator. Subsequently, the 96-well ELISA plate was taken out, and the solution therein was discarded. After washing with PBST for 3 times, TMB solution (Solarbio, Catalog Number: PR1200) was added to the 96-well ELISA plate row by row with a volume of 100 μl per well. The 96-well ELISA plate was placed at room temperature for 5 minutes, and 2 M H2SO4 solution was added in immediately to terminate the reaction. The 96-well ELISA plate was placed in flexstation 3 (Molecular Devices), the values of OD450 were read, and the data were collected, calculated and analyzed. Results were expressed relative to the affinity of control antibody 1.
# IL-4Rα on TF-1 cells [3] = target: T1, IL-4Rα on TF-1 cells; experiment: cell-based or functional assay; remark: listed apart in the source
# IL-4Rα on TF-1 cells [4] = target: T1, IL-4Rα on TF-1 cells; experiment: cell-based or functional assay; remark: listed apart in the source
Binder,Inhibitory rate on pro-proliferative effect of IL-4 (IL-4Rα on TF-1 cells [1]),Inhibitory rate on pro-proliferative effect of IL-13 (IL-4Rα on TF-1 cells [1]),OD 450/OD450Control antibody 1 [2],IC50 (ng/ml) (Inhibition on the proliferation of IL-4) (IL-4Rα on TF-1 cells [3]) [ng/mL],IC50 (ng/ml) (Inhibition on the proliferation of IL-13) (IL-4Rα on TF-1 cells [3]) [ng/mL],Inhibitory rate on pro-proliferative effect of IL-4 (IL-4Rα on TF-1 cells [4]),Inhibitory rate on pro-proliferative effect of IL-13 (IL-4Rα on TF-1 cells [4])
B1,0.72,0.49,1.79,–,–,–,–
B2,–,–,0.9,34.3,76.5,1.01,0.93
B3,-0.05,0.02,0.16,–,–,–,–
B4,–,–,0.63,28.5,69.7,1,0.94
B5,0.86,0.7,0.23,–,–,–,–
B6,0.26,0.07,–,–,–,–,–
B7,0.44,0.39,0.69,–,–,–,–
B8,–,–,0.9,–,–,1.01,0.94
B9,–,–,0.24,15.4,28.6,0.91,0.75
